Results taken from paper PMC8234031, “Modular Assembly of Phosphite Dehydrogenase and Phenylacetone Monooxygenase for Tuning Cofactor Regeneration” (Biomolecules, 2021).

Experiments:
[1] = target: PTDHI (phosphite dehydrogenase with a C-terminal RIDD tag)
[2] = target: PTDHA2 (phosphite dehydrogenase with a C-terminal RIAD–RIAD tag); experiment: SEC; each purified tagged protein alone, in the absence of any other tagged protein; Superdex 200 (10/300), 50 mM Tris–HCl with 150 mM NaCl, pH 7.5
[3] = target: PTDHA (phosphite dehydrogenase with a C-terminal RIAD tag); experiment: as above

Substance | conversion of 5.0 mM bicyclo[3.2.0]hept-2-en-6-one after 24 h by the mixture of the two tagged enzymes [1] | other results
PAMOA2 (phenylacetone monooxygenase with a C-terminal RIAD–RIAD tag) (enzyme) | 78% | –
PAMOA (phenylacetone monooxygenase with a C-terminal RIAD tag) (enzyme) | 78% | –
PTDHA2 (phosphite dehydrogenase with a C-terminal RIAD–RIAD tag) (enzyme) | – | stoichiometry N [2]: 2
PTDHA (phosphite dehydrogenase with a C-terminal RIAD tag) (enzyme) | – | stoichiometry N [3]: 2
